B1: spike (S) protein: N1249Q (protein)
parent chain: MKSLTYFWLFLPVLSTLSLPQDVTRCSANTNFRRFFSKFNVQAPAVVVLGGYLPIGENQGVNSTWYCAGQHPTASGVHGIFVSHIRGGHGFEIGISQEPFDPSGYQLYLHKATNGNTNATARLRICQFPSIKTLGPTANNDVTTGRNCLFNKAIPAHMSEHSVVGITWDNDRVTVFSDKIYYFYFKNDWSRVATKCYNSGGCAMQYVYEPTYYMLNVTSAGEDGISYQPCTANCIGYAANVFATEPNGHIPEGFSFNNWFLLSNDSTLVHGKVVSNQPLLVNCLLAIPKIYGLGQFFSFNQTIDGVCNGAAVQRAPEALRFNINDTSVILAEGSIVLHTALGTNFSFVCSNSSDPHLATFATPLGATQVPYYCFLKVDTYNSTVYKFLAILPPTVREIVITKYGDFYVNGFGYLHLGLLDAVTINFTGHGTDDDVSGFWTIASTNFVDALIEVQGTAIQRILYCDDPVSQLKCSQVSFDLDDGFYPISSRNLLSHEQPISFVTLPSFNDHSFVNITVSASFGGHSGANLIASDTTINGFSSFCVETRQFTISLFYNVTNSYGYVSKSQDSNCPFTLQSVNDYLSFSKFCVSTSLLASACTIDLFGYPEFGSGVKFTSLYFQFTKGELITGTPKPLVGVTDVSFMTLDVCTKYTIYGFKGEGIITLTNSSFLAGIYYTSDSGQLLAFKNVTSGAVYSVTPCSFSEQAAYVDDDIVGVISSLSNSTFNSTRELPGFFYHSNDGSNCTEPVLVYSNIGVCKSGSIGYVLSKSGQVKIAPTVTGNISIPTNFSMSIRTEYLQLYNTPVSVDCATYVCNGNSRCKQLLTQYIAACKTIESALQLSARLESAEVNSMLTISEEALQLATISSFNGDGYNFTNVLGVSVRDPASGRVVQKRSFIEDLLFNKVVTNGLGTVDEDYKRCSNGRSVADLVCAQYYSGVMVLPGVVDAEKLHMYSASLIGGMVLGGFTAAAALPFSYAVQARLNYLALQTDVLQRNQQLLAESFNSAIGDITSAFESVKEAISQTSKGLNTVAHALTKVQEVVNSQGAALTQLTVQLQHNFQAISSSIDDIYSRLDILSADVQVDRLITGRLSALNAFVAQTLTKYTEVQASRKLAQQKVNECVKSQSQRYGFCGGDGEHIFSLVQAAPQGLLFLHTVLVPGDFVDVIAIAGLCVNDEIALTLREPGLVLFTHELQNHTATEYFVSSRRMFEPRKPTVSDFVQIESCVVTYVNLTRDQLPDVIPDYIDVNKTLYEILASLPNRTGPSLPLDVFNATYLNLTGEIADLEQRSESLRNTTEELQSLIYNINNTLVDLEWLNRVETYIKWPWWVWLIIFIVLIFVVSLLVFCCISTGCCGCCGCCGACFAGCCRGPRLQPYEAFEKVHVQ
B2: spike (S) protein: N1232Q (protein)
parent chain: B1 parent chain
B3: spike (S) protein: N726Q (protein)
parent chain: B1 parent chain
B4: spike (S) protein: N118Q (protein)
parent chain: B1 parent chain
B5: spike (S) protein: N216Q (protein)
parent chain: B1 parent chain
B6: spike (S) protein: N514Q (protein)
parent chain: B1 parent chain
B7: spike (S) protein: N351Q (protein)
parent chain: B1 parent chain
B8: spike (S) protein: N1278Q (protein)
parent chain: B1 parent chain
B9: spike (S) protein: N688Q (protein)
parent chain: B1 parent chain
B10: spike (S) protein: N1261Q (protein)
parent chain: B1 parent chain
B11: spike (S) protein: N300Q (protein)
parent chain: B1 parent chain
B12: spike (S) protein: N344Q (protein)
parent chain: B1 parent chain
B13: spike (S) protein: N781Q (protein)
parent chain: B1 parent chain
B14: spike (S) protein: N743Q (protein)
parent chain: B1 parent chain
B15: spike (S) protein: N381Q (protein)
parent chain: B1 parent chain
B16: spike (S) protein: N556Q (protein)
parent chain: B1 parent chain
B17: spike (S) protein: N1196Q (protein)
parent chain: B1 parent chain
B18: spike (S) protein: N62Q (protein)
parent chain: B1 parent chain
B19: spike (S) protein: N324Q (protein)
parent chain: B1 parent chain
B20: spike (S) protein: N873Q (protein)
parent chain: B1 parent chain
B21: spike (S) protein: N425Q (protein)
parent chain: B1 parent chain

Test: RT-qPCR of rectal swabs
Settings: glycan lost; control: rPEDV-WT

| Protein | other: faecal viral shedding |
| --- | --- |
| B1 | decreases |
| B2 | decreases |

Test: viral titre in LLC-PK1 cells
Settings: glycan lost; control: rPEDV-WT

| Protein | other: viral replication |
| --- | --- |
| B1 | decreases |
| B3 | decreases |
| B4 | decreases |
| B5 | decreases |
| B2 | decreases |

Test: 4 °C binding, RT-qPCR of PEDV N
Settings: glycan lost; control: rPEDV-WT

| Protein | other: viral attachment |
| --- | --- |
| B1 | no change |
| B4 | decreases |
| B2 | no change |

Test: plaque morphology assay, ImageJ
Settings: glycan lost; control: rPEDV-WT

| Protein | other: plaque size |
| --- | --- |
| B1 | decreases |
| B3 | decreases |
| B4 | decreases |
| B5 | decreases |
| B2 | decreases |

Test: viral titre at 24 hpi, MOI 0.01
Settings: glycan lost; control: rPEDV-WT

| Protein | other: viral replication |
| --- | --- |
| B6 | no change |
| B7 | no change |
| B1 | decreases |
| B8 | no change |
| B9 | no change |
| B10 | no change |
| B11 | no change |
| B12 | no change |
| B3 | decreases |
| B4 | decreases |
| B13 | no change |
| B14 | no change |
| B5 | decreases |
| B2 | decreases |
| B15 | no change |
| B16 | no change |
| B17 | no change |
| B18 | no change |
| B19 | no change |

Test: H&E staining of intestine at 5 dpc
Settings: glycan lost; control: rPEDV-WT

| Protein | other: intestinal histopathology |
| --- | --- |
| B1 | abolishes |
| B2 | abolishes |

Test: 37 °C 30 min, citrate wash, RT-qPCR
Settings: glycan lost; control: rPEDV-WT

| Protein | other: viral internalization |
| --- | --- |
| B4 | decreases |
| B5 | decreases |
| B2 | decreases |

Test: RT-qPCR of intestinal tissues at 5 dpc
Settings: glycan lost; control: rPEDV-WT

| Protein | other: intestinal viral load |
| --- | --- |
| B1 | decreases |
| B3 | no change |
| B4 | no change |
| B5 | no change |
| B2 | decreases |

Test: CHX chase, anti-Flag western blot, 293T
Settings: glycan lost; control: WT S protein

| Protein | degradation_or_half_life |
| --- | --- |
| B1 | no change |
| B3 | no change |
| B4 | no change |
| B5 | no change |
| B2 | no change |

Test: oral challenge; fecal scores, gross necropsy
Settings: glycan lost; control: rPEDV-WT

| Protein | other: virulence in animals |
| --- | --- |
| B1 | decreases |
| B3 | decreases |
| B4 | decreases |
| B5 | decreases |
| B2 | decreases |

Test: BAC transfection of Vero cells; CPE, western blot
Settings: glycan lost; control: rPEDV-WT

| Protein | other: virus rescue (viability), other: viruses recovered/attempts |
| --- | --- |
| B6 | no change |
| B7 | no change |
| B20 | abolishes |
| B1 | no change |
| B8 | no change |
| B9 | no change |
| B21 | abolishes |
| B10 | no change |
| B11 | no change |
| B12 | no change |
| B3 | no change |
| B4 | no change |
| B13 | no change |
| B14 | no change |
| B5 | no change |
| B2 | no change |
| B15 | no change |
| B16 | no change |
| B17 | no change |
| B18 | no change |
| B19 | no change |

Test: anti-PEDV N immunofluorescence of intestine sections
Settings: glycan lost; control: rPEDV-WT

| Protein | other: intestinal viral antigen |
| --- | --- |
| B1 | abolishes |
| B2 | abolishes |
